According to patent US20230183661A1, “BICOMPATIBLE PEPTIDEBIOCOMPATIBLE PEPTIDES FOR INHIBITION OF AGGREGATION OF B-AMYLOID PROTEIN” (Catholic University Industry Academic Cooperation Foundation, priority 2017, published 2023):

Key:
[1] = target: β-amyloid (Aβ) overexpressed in nerve cells (UniProt P05067); assay: Co-IP from N2a cells, relative score
[2] = target: β-amyloid (Aβ) overexpressed in nerve cells (UniProt P05067); assay: cell-based or functional assay

Sequence of Peptide 5 (β 1-5 fragment of SOD1), NABi (Natural Amyloid β Binder and Amyloid β aggregation inhibitor) (P00441 2-91): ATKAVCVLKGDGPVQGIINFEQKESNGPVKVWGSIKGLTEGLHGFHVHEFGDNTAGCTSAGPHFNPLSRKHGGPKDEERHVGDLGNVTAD

| Binding strength with β-amyloid [1] | fluorescence recovery after photobleaching (FRAP) of Aβ in N2a cells, within 20 seconds [2] [%] | fluorescence recovery after photobleaching (FRAP) of Aβ in N2a cells, within 90 seconds [2] [%] | Substance |
| --- | --- | --- | --- |
| 3.5 |  |  | Peptide 2 (β 2-7/T fragment of SOD1) (from UniProt P00441 16-145) |
| 0 |  |  | Peptide 3 (β 4-6 fragment of SOD1) (from UniProt P00441 40-114) |
| 1 | 50 | 75 | Peptide 5 (β 1-5 fragment of SOD1), NABi (Natural Amyloid β Binder and Amyloid β aggregation inhibitor) |
| 0 |  |  | Peptide 6 (β 5-8 fragment of SOD1) (from UniProt P00441 81-154) |
